This is an account of results in patent US8133978 (GlaxoSmithKline, dated 2012).

Usually EC50 (read off the curve) stands for the concentration at which the effect is half-maximal. Read a high EC50 (read off the curve) as lower potency in that assay. For orientation: Kd means the free concentration of one partner at which half of the binding sites on the other are occupied at equilibrium, for simple one-to-one binding.

One experiment concerns the target T1, Rhesus IL-18 (rhesus (rhesus/cynomolgus)).
T1 construct: also called Rhesus/Cynomolgus IL-18; rhesus/cynomolgus IL-18
Put plainly: Rhesus IL18 binding ELISA, antibody titrated, OD 490 nm. In general terms: In an ELISA, binding on a coated surface is turned into a signal by an enzyme label.

Experiment [1] addresses T2, Human interleukin-18 (recombinant human IL-18) (human, UniProt Q14116 37-193).
T2 construct: also called hIL-18
T2 sequence: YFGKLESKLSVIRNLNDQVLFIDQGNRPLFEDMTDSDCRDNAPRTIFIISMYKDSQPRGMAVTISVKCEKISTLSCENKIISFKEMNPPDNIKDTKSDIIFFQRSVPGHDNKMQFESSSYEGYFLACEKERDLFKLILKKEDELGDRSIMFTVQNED
The experiment in a line: SPR, Biacore T100, Protein A capture, 37 C, mean n = 6. On the procedure: (§1) The methodology was basically the same as for the method used in Example 4a above; Protein A was immobilised on a CM5 chip at densities of between 2000-6000 RU's by primary amine coupling. Runs were carried out in HBS-EP (Biacore™). The anti-IL-18 antibodies were captured to densities of between 100-500 RUs, human IL-18 was passed over this captured surface at concentrations between 16-0.0625 nM, with 0 nM concentration (i.e., a buffer only injection of captured antibody) used for double referencing. Regeneration after each injection of IL-18 was by mild acidic elution using two injections of 10 mM glycine, pH1.5. […] The binding curves obtained were analysed using the analysis software inherent to the T100 machine using the 1:1 model of binding. Runs were carried out at the temperatures indicated.
(§2) These experiments were carried out as described above. Table 6 details the kinetic parameters obtained. […] H1L2 has a better on-rate (ka) than H1L1.
(In general: SPR reads the build-up and loss of mass on a sensor chip optically.)

The target in experiment [2] is T2, Human interleukin-18 (recombinant human …). Put plainly: SPR, Biacore T100, Protein A capture, 25 C, mean n = 4. On the procedure: as §1, §2
For experiment [3] the target is unchanged. The experiment in a line: cell-based or functional assay.
Experiment [4] has the same target. Put plainly: SPR, Biacore 3000, antibody captured on Protein A, 25 C. On the procedure:
Biacore™ kinetic analysis of the humanised 2C10 antibodies was carried out on a Biacore™ 3000 instrument using Protein A capture of the antibodies in HBS-EP buffer (Biacore™). Briefly, Protein A was immobilised on a CM5 chip by primary amine coupling, using manufacturers recommended protocol, to densities around 2000-4000 resonance units (RU's). Humanised antibody was then passed over the Protein A surface and captured to levels of around 200-500 RU's, after a period of stabilisation, IL-18 (human or Rhesus) was passed over the captured antibody surface at defined concentrations and binding sensorgrams were obtained. […] All curves were double referenced against a buffer injection instead of IL-18 and the data was fitted to the 1:1 binding model using the global fit parameters in BiaEval 4.1. Off-rate ranking experiments were set up using the same Protein A capture method, however, only a single concentration of IL-18 was used (10 nM). Whilst the data was fitted using the same binding model as the kinetic analysis, since only one concentration of analyte was used on the off-rate is reported, this value is useful for ranking rather than giving an exact kinetic measurement and was used as a way of selecting which antibodies would be further investigated. […]

B1: H1L2 humanised anti-IL-18 antibody (antibody, human IgG1, kappa, V domains shown)
VH: QVQLVQSGAEVKKPGASVKVSCKVSGEISTGYYFHWVRQAPGKGLEWMGRIDPEDDSTKYAERFKDRVTMTEDTSTDTAYMELSSLRSEDTAVYYCTTWRIYRDSSGRPFYVMDAWGQGTLVTVSS
VL: DIQMTQSPSSVSASVGDRVTITCLASEDIYTYLTWYQQKPGKAPKLLIYGANKLQDGVPSRFSGSGSGTDYTLTISSLQPEDFATYYCLQGSKFPLTFGQGTKLEIKR
notes: Human IgG1 / kappa
For the molecule B1, in the experiment with Rhesus IL-18, the “EC50 (read off the curve)” value was approximately 0.03 µg/mL. The results for the Kd in experiment [1], in experiment [2] and in experiment [4] were 0.046 nM, 0.0163 nM and 0.0303 nM, respectively. Besides, in experiment [3], the “% change vs 2C10 (IC50, KG-1 bioassay)” value was 61.5%.
